Literature values in patent EP0259891B1, “[Leu 13] motilin, DNAs coding for same and methods for producing same” (KYOWA HAKKO KOGYO CO., LTD., priority 1986, dated 1995).

Conditions: 13th amino acid Met oxidised; M. Fujino et al., Chem. Pharm. Bull., 26, 101 (1978)

motilin: physiologically active peptide occurring in the mammalian blood, composed of 22 amino acid residues, 13th amino acid Met
motilin activity after oxidation of Met to the sulfoxide form: decreased motilin activity
